Assay results as given in PMC11599015.

Biological target: recombinant circular RABV N10-RNA complex purified from insect cells (phosphorylated) (rabies virus (RABV)) (UniProt Q8JXF6)
Assay: SPR

recombinant circular RABV N10-RNA complex purified from insect cells (phosphorylated) (rabies virus (RABV)), sequence (Q8JXF6 whole entry, one chain of several): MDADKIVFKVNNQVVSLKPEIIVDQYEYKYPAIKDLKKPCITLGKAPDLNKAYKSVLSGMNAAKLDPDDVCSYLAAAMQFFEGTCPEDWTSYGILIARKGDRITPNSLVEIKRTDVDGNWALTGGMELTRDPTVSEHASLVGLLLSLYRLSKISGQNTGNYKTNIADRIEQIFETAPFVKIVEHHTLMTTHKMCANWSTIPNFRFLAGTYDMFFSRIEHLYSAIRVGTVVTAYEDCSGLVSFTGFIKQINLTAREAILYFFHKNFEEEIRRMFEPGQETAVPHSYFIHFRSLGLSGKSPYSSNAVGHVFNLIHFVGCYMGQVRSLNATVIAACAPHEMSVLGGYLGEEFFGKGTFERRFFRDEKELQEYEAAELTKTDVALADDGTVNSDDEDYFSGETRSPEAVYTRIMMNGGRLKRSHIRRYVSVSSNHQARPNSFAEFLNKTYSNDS

## RABV phosphoprotein P deleted of residues 90-133 (dimerization domain) (domain or fragment)
  Kd: 80 nM
  stoichiometry N: 1.7
